Data published in PMC9993842 (2023).

Target: LRP2 (megalin) (Mus musculus, UniProt A2ARV4)
Assay: SPR

- Kd: 5.8 nM
B1: RAP (receptor-associated protein) (protein)
chain: YSREKNQPKPSPKRESGEEFRMEKLNQLWEKAQRLHLPPVRLAELHADLKIQERDELAWKKLKLDGLDEDGEKEARLIRNLNVILAKYGLDGKKDARQVTSNSLSGTQEDGLDDPRLEKLWHKAKTSGKFSGEELDKLWREFLHHKEKVHEYNVLLETLSRTEEIHENVISPSDLSDIKGSVLHSRHTELKEKLRSINQGLDRLRRVSHQGYSTEAEFEEPRVIDLWDLAQSANLTDKELEAFREELKHFEAKIEKHNHYQKQLEIAHEKLRHAESVGDGERVSRSREKHALLEGRTKELGYTVKKHLQDLSGRISRARHNEL
